Experimental findings from the Human Domainome abundance scans (Beltran et al. 2025) are described below.

The chains are these.
B1: Transcriptional repressor p66-beta, residues 415 to 455; numbered along this chain, Q8WXI9 (parent)
chain: VEPFVCAQCRTDFTPHWKQEKNGKILCEQCMTSNQKKALKA

± gives the uncertainty stated by the source.

The variants in the data set derive from B1. Nature of the data set: abundance fitness (aPCA) (normalised: wild type 0, dead -1); higher = more abundant; growth selection in yeast, the domain comes from the species named. The following applies: Homo sapiens.
As for F13S, the abundance fitness was -0.164 ± 0.079. For F13E the value was -0.007 ± 0.074. The figure for F13K is -0.629 ± 0.44. The figure for F13T is 0.039 ± 0.094; for F13H it is -0.244 ± 0.3; for F13A it is 0.139 ± 0.067. On to F13W, for which the abundance fitness was -0.213 ± 0.089. The figure for F13M is 0.192 ± 0.12; for F13G it is -0.116 ± 0.059.

Regarding F13L, the abundance fitness is -0.179 ± 0.072. F13Q: the abundance fitness is -0.593 ± 0.28. On to F13V, for which the abundance fitness was determined as 0.337 ± 0.053. F13D: the abundance fitness was -0.21 ± 0.22. For the variant F13R, the abundance fitness was -0.144 ± 0.065. For the variant C9Y, the abundance fitness is -0.937 ± 0.43. For the variant C9E, the abundance fitness was -0.235 ± 0.11. For C9W the value was -0.999 ± 0.17. The figure for C9T is -0.203 ± 0.12; for C9H it is 0.389 ± 0.1; for C9P it is -0.049 ± 0.15. Turning to C9K, the abundance fitness was -0.148 ± 0.13. With C9S, the abundance fitness is -0.733 ± 0.27. For C9R the value was -0.436 ± 0.09; for C9D, -0.271 ± 0.17.

As to C9Q, the abundance fitness was -0.09 ± 0.097.

As for C9G, the abundance fitness was -0.262 ± 0.062. The figure for C9A is -0.417 ± 0.079; for C9M it is -0.716 ± 0.3; for C9N it is -0.717 ± 0.41.

For the variant N22C, the abundance fitness amounted to 0.289 ± 0.12. The figure for N22R is 0.208 ± 0.065; for N22K it is 0.066 ± 0.13; for N22W it is 0.137 ± 0.1.

N22Q: the abundance fitness turned out to be 0.106 ± 0.12. For N22T the value was 0.079 ± 0.2; for N22L, -0.241 ± 0.12; for N22S, 0.382 ± 0.08. Turning to N22G, the abundance fitness was found to be 0.439 ± 0.06.

For N22F, the abundance fitness was -0.377 ± 0.18. The figure for N22D is 0.011 ± 0.14; for N22P it is 0.027 ± 0.16; for N22V it is 0.193 ± 0.079. For N22Y, the abundance fitness worked out at 0.19 ± 0.3. For N22A the value was 0.05 ± 0.069.

For the variant H16D, the abundance fitness turned out to be 0.015 ± 0.099.

Turning to H16P, the abundance fitness is -0.23 ± 0.14. The figure for H16T is 0.09 ± 0.089; for H16E it is -0.042 ± 0.11; for H16G it is -0.022 ± 0.059. For H16C the value was 0.072 ± 0.15; for H16Q, -0.14 ± 0.11. The figure for H16A is -0.077 ± 0.074. As to H16M, the abundance fitness was -0.1 ± 0.1. The figure for H16I is -0.073 ± 0.2; for H16L it is -0.272 ± 0.092. On to H16Y, for which the abundance fitness is -0.004 ± 0.24. For H16W the value was 0.017 ± 0.074.

As for H16N, the abundance fitness is -0.319 ± 0.2.

Consider H16F, for which the abundance fitness is -0.005 ± 0.18. The figure for H16K is -0.28 ± 0.18. In the case of H16R, the abundance fitness is -0.05 ± 0.066. For H16S the value was -0.084 ± 0.074; for T14W, -0.521 ± 0.094.

T14E: the abundance fitness is -0.041 ± 0.11. For T14A the value was -0.185 ± 0.086. The figure for T14F is -0.056 ± 0.21.

Consider T14Y, for which the abundance fitness came to 0.264 ± 0.2. The figure for T14K is -0.014 ± 0.072. The figure for T14S is -0.042 ± 0.12. The figure for T14C is -0.145 ± 0.16; for T14G it is -0.395 ± 0.086; for T14D it is -0.347 ± 0.27. For the variant T14I, the abundance fitness was -0.298 ± 0.13. The figure for T14R is -0.237 ± 0.068. As for T14P, the abundance fitness was 0.137 ± 0.078. For T14V the value was 0.144 ± 0.067. For T14Q the value was -0.078 ± 0.12; for T14H, -0.039 ± 0.14; for T14M, -0.527 ± 0.25. For T14L the value was -0.035 ± 0.078; for Q8N, 0.741 ± 0.14. As to Q8E, the abundance fitness was 0.849 ± 0.06. Take Q8Y: the abundance fitness amounted to 0.428 ± 0.14.

Take Q8R: the abundance fitness stood at 0.843 ± 0.055.

In the case of Q8M, the abundance fitness stood at 0.657 ± 0.12. Turning to Q8W, the abundance fitness turned out to be 0.557 ± 0.057.

For Q8K, the abundance fitness was 0.788 ± 0.075. For Q8S the value was 0.839 ± 0.061; for Q8H, 0.58 ± 0.14; for Q8G, 0.934 ± 0.048.

Regarding Q8A, the abundance fitness came out at 0.821 ± 0.065. The figure for Q8P is -0.393 ± 0.12; for Q8V it is 0.896 ± 0.052. The figure for Q8C is 0.506 ± 0.095. The figure for Q8T is 0.864 ± 0.075; for Q8L it is 0.723 ± 0.06; for E20Q it is -0.303 ± 0.13.

Consider E20P, for which the abundance fitness was -0.631 ± 0.23.

In the case of E20C, the abundance fitness amounted to 0.158 ± 0.13. The figure for E20K is -0.468 ± 0.37.

Consider E20R, for which the abundance fitness is -0.314 ± 0.072.

As to E20S, the abundance fitness is -0.115 ± 0.11.

E20F: the abundance fitness was -0.696 ± 0.29.

In the case of E20L, the abundance fitness was -0.254 ± 0.1.

As to E20W, the abundance fitness was -0.362 ± 0.16. For E20D the value was -0.645 ± 0.41. Regarding E20V, the abundance fitness was -0.013 ± 0.092. As to E20A, the abundance fitness was -0.498 ± 0.099. Turning to E20G, the abundance fitness is -0.034 ± 0.063. For E20I the value was 0.391 ± 0.34; for E20T, -0.315 ± 0.2; for V5Q, 0.14 ± 0.084. The figure for V5P is -0.29 ± 0.12; for V5C it is -0.351 ± 0.23; for V5K it is 0.027 ± 0.11.

Regarding V5I, the abundance fitness was -0.126 ± 0.13.

With V5A, the abundance fitness was 0.116 ± 0.095. The figure for V5R is -0.027 ± 0.067. V5M: the abundance fitness was -0.03 ± 0.17. On to V5S, for which the abundance fitness came out at 0.136 ± 0.094.

Take V5L: the abundance fitness worked out at 0.18 ± 0.068. Regarding V5W, the abundance fitness was -0.405 ± 0.13. The figure for V5G is -0.302 ± 0.075; for V5F it is -0.288 ± 0.2.

Take V5T: the abundance fitness turned out to be 0.041 ± 0.1. The figure for V5D is -0.568 ± 0.27; for V5E it is -0.226 ± 0.089.

For the variant R10W, the abundance fitness amounted to 0.338 ± 0.068.

Turning to R10I, the abundance fitness was 0.521 ± 0.14. Consider R10L, for which the abundance fitness stood at 0.585 ± 0.064.

With R10N, the abundance fitness is -0.022 ± 0.22. The figure for R10E is 0.27 ± 0.13; for R10F it is 0.608 ± 0.1; for R10V it is 0.703 ± 0.058. For R10Y the value was 0.518 ± 0.082. For R10D, the abundance fitness was found to be 0.014 ± 0.092. Turning to R10H, the abundance fitness was determined as 1.1 ± 0.083.

As for R10P, the abundance fitness was 0.352 ± 0.093. Turning to R10A, the abundance fitness was 0.904 ± 0.067. As for R10S, the abundance fitness turned out to be 0.717 ± 0.059. For R10K the value was 0.409 ± 0.087; for R10C, 0.957 ± 0.068. For Q19T the value was -0.346 ± 0.32; for Q19R, -0.029 ± 0.069. The figure for Q19E is 0.163 ± 0.11; for Q19P it is 0.109 ± 0.13. Take Q19S: the abundance fitness is -0.044 ± 0.12.

Take Q19K: the abundance fitness was 0.143 ± 0.089.

Turning to Q19C, the abundance fitness was 0.103 ± 0.16.

In the case of Q19M, the abundance fitness worked out at 0.026 ± 0.097.

With Q19G, the abundance fitness was found to be 0.323 ± 0.052. For the variant Q19N, the abundance fitness turned out to be 0.136 ± 0.14.

For Q19A, the abundance fitness was 0.106 ± 0.066.

With Q19V, the abundance fitness stood at 0.159 ± 0.061. As to Q19D, the abundance fitness came out at 0.212 ± 0.15.

As to V1S, the abundance fitness was -0.444 ± 0.2. In the case of V1E, the abundance fitness was 0.067 ± 0.13. Take V1G: the abundance fitness worked out at 0.024 ± 0.093. For the variant V1A, the abundance fitness is -0.29 ± 0.086.

Turning to V1I, the abundance fitness is -0.288 ± 0.24. The figure for V1M is 0.212 ± 0.13; for V1K it is 0.195 ± 0.21. The figure for V1T is -0.187 ± 0.36; for V1R it is -0.054 ± 0.12; for V1D it is -0.002 ± 0.12.

V1N: the abundance fitness was -0.178 ± 0.3.

Consider V1F, for which the abundance fitness is -0.17 ± 0.21.
